Results published in paper PMC4869151 (ACS Infectious Diseases, 2016).

Experiments:
[1] = biological target: T1, recombinant HAstV-2 capsid protein (Human astrovirus 2 (HAstV-2), entry …, UniProt Q82446, strain); experiment: pull-down
[2] = biological target: T1, recombinant HAstV-2 capsid protein; experiment: ELISA

B1: recombinant single-chain variable fragment of the PL-2 antibody (scFv, V domains shown)
VH: DVQLKQSGPGLVQPSQSLSITCTVSGFSLIDYGVHWVRQSPGKGLEWLGVIWTGGSTDYNAAFISRLTISKDNSKSQVFFKMNSLQANDTGIYYCGRPYYGNVMDYWGQGTSVTVSS
VL: DIQMTQTTSSLSASLGDRVTISCRASQDISNYLNWYQQKPDGTVKLLIYYTSRLHSGVPSRFSGSGSGTDYSLTISNLEQEDIATYFCQQGNTFPPTFGGGTKLEIK
binding result [1]: binds

B2: monoclonal antibody PL-2 (antibody, V domains shown)
VH: B1 VH
VL: B1 VL
binding result [2]: binds
